The record followed here is patent publication US20200048644A1.

For orientation: Kd means a measure of binding affinity in units of concentration.

The experiment deals with recombinant GPIb. Put plainly: GPIb binding activity test of the purified product (format not described; FIG. 9).

B1: recombinant Agkisacutacin (heterodimer snake venom protein, A chain and B chain, expressed in Pichia pastoris GS115) (protein)
chain 1: DVDCLPGWSAYDQSCYRVFKLLKTWDDAEKFCTERPKGGHLVSIESAGERDFVAQLVSENKQTDNVWLGLKIQSKGQQCSTEWTDGSSVSYENFSEYQSKKCFVEKNTGFRTWLNLNCGSEYAFVCKSPP
chain 2: GFCCPLRWSSYEGHCYLVVKEKKTWDDAEKFCTEQRKGGHLVSVHSREEADFLVHLAYPILDLSLIWMGLSNMWNDCKREWSDGTKLDFKAWAKTSDCLIGKTDDNQWLNMDCSKKHYFVCKFKL
With B1, the Kd was found to be 100 nM.
